The text below walks through data of publication doi:10.1101/2023.11.28.569006.

Assay [1] deals with artificial chaperone ADGroEL_SacSm (complete heptameric ring) (not stated | Sulfolobus acidocaldarius). Description: pull-down.
The target in assay [2] is hetero-oligomers with three or more ADGroEL_SacSm in their composition. Description: pull-down.

B1: denatured alpha-Lactalbumin (αLA) (natural protein)
chain: EQLTKCEVFRELKDLKGYGGVSLPEWVCTTFHTSGYDTQAIVQNNDSTEYGLFQINNKIWCKDDQNPHSSNICNISCDKFLDDDLTDDIMCVKKILDKVGINYWLAHKALCSEKLDQWLCEKL
In assay [1], B1 yielded a stoichiometry N (αLA molecules per complete ring) of 4. The molecule also returned a stoichiometry N (αLA per ADGroEL) in assay [2] of 0.5.
